Data: FireProtDB (doi:10.1111/j.1399-3011.1982.tb00898.x)

B1: Tryptophan synthase alpha chain, P0A877 (parent)
chain: MERYESLFAQLKERKEGAFVPFVTLGDPGIEQSLKIIDTLIEAGADALELGIPFSDPLADGPTIQNATLRAFAAGVTPAQCFEMLALIRQKHPTIPIGLLMYANLVFNKGIDEFYAQCEKVGVDSVLVADVPVEESAPFRQAALRHNVAPIFICPPNADDDLLRQIASYGRGYTYLLSRAGVTGAENRAALPLNHLVAKLKEYNAAPPLQGFGISAPDQVKAAIDAGAAGAISGSAIVKIIEQHINEPEKMLAALKVFVQPMKAATRS

Variants of: B1
Conditions: Escherichia coli (strain K12), Thermal, DSC, structure 1WQ5, whole UniProt chain shown
[1] = pH 7, 25 °C, potassium phosphate 1 mM, reversible: yes(<50%)
[2] = pH 9.3, 25 °C, sodium tetraborate 1 mM, reversible: yes(>70%)
[3] = pH 9.3, sodium tetraborate 1 mM, reversible: yes(>70%)
[4] = pH 7, potassium phosphate 1 mM, reversible: yes(<50%)

| Variant | heat capacity change of unfolding [1] [kcal/mol/K] | unfolding free energy [1] [kcal/mol] | heat capacity change of unfolding [2] [kcal/mol/K] | unfolding free energy [2] [kcal/mol] | Tm [3] [°C] | heat capacity change of unfolding [3] [kcal/mol/K] | Tm [4] [°C] | heat capacity change of unfolding [4] [kcal/mol/K] |
| --- | --- | --- | --- | --- | --- | --- | --- | --- |
| E49Q | 2.9 | 7.4 | 2.9 | 8.4 | 62.4 | 2.9 |  |  |
| E49S | 2.9 | 7.7 | 2.9 | 7.1 | 58.6 | 2.9 | 60.5 | 2.9 |
